Experimental data as given in the supplement of paper PMC9170038.

Test system: K4 kissing-loop RNA reporter
Test: apparent KD of K4 kissing-loop reporter; higher = weaker reporter binding
Conditions: Eterna round: R107
Experimental: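 RNA-MaP round R107: designed RNA switches with theophylline, tryptophan, arginine or FMN aptamers are transcribed on-chip within common flanks. They are titrated with a labelled K4 kissing-loop RNA reporter in RNA-MaP buffer (100 mM Tris pH 7.5, 80 mM KCl, 4 mM MgCl2), without ligand or with the indicated ligand. Median apparent KD per design.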

[1] = input ligand: theophylline 20 uM
[2] = input ligand: tryptophan 2.4 mM
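Note: bound reporter read as fluorescence of individual clusters on recovered sequencing chips by microscopy, with normalized cluster intensities fitted with a binding model.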

Sequence | apparent KD of K4 kissing-loop reporter (input ligand: FMN 200 uM) | apparent KD of K4 kissing-loop reporter (input ligand: arginine 13.2 mM) | apparent KD of K4 kissing-loop reporter (input ligand: none) | apparent KD of K4 kissing-loop reporter [1] | apparent KD of K4 kissing-loop reporter [2]
AGCAGUGAUGUUGCUCAAUUUACAGGUGAUACCAGAGGUCAGUCUCUCCCUUGGCAGCACUUCAUACGAUGAUGUUUUAUCGGCC [theeternabot_sameState_KL_Theo_A_50] | 374 nM | 321 nM | 370 nM | 378 nM | 313 nM
UACCCGUGCUACUCCAUCCAUGCCACACCGCGAGGACCGGUACGGCCGCCACUCGUCGGAAAGUGAUGUUUUCAAACAAAGUUGC | 151 nM | 93.4 nM | 142 nM | 292 nM | 76.9 nM
UAAUCCUAGUGAUCCUUAUCAAGUGGUGGGCGAGGACCGGUACGGCCGCCACUCGAAUAUGCAGUGAUGUUGUAAUCCGGAUAAU [Exclusion - Tryptophan A (Freestyle 9)] | 568 nM | 741 nM | 919 nM | 750 nM | 440 nM
UCGCCAAAGUCGGCCGCCACUCCGGGCCCUAUAAAUGGGCGCAGUGAUGUUGCGGCUAGGCCUCUGAGGACCGGGACUUUGUAGA [Esenusza] | 116 nM | 0.509 nM | 152 nM | 233 nM | 152 nM
AGUAGUUGGACGGCCGCCACUAGAACAGCUUUGCCAAAGGCAGAGCACUAGAGUGAUGUUCUAGCUAGGACCGGGUCCAACUACA [Omei KL Tryp B SS A v1] | 902 nM | 306 nM | 54.2 nM | 118 nM | 1000 nM
UAAAUUAAGCUUUGCUGAUUAAUAAGCGAUACCAGCAAAUAAUGAUGCCCUUGGCAGCGUUAUAAUCUAGUGAUGUUAGAUUAGU [Not much to say about this one] | 92.6 nM | 106 nM | 101 nM | 103 nM | 85 nM
UACGCUGCCUGAGGAUAUAGAAACGAGUGAUGUUCGUGGAUAAGAGCCAGUGAUGUUGGGUUAUUUCUAGAAGGCAGGUAAAGUA [Exclusion FMN B GF6] | 106 nM | 89.1 nM | 102 nM | 95.8 nM | 100 nM
UUCAGUGACAUACGAGUGAUGUUCGUAAUACGAGGACCGGUACGGCCGCCACUCGCACGUCGGCAGUUUGUUCAUGCAUCAGACU | 226 nM | 160 nM | 259 nM | 255 nM | 514 nM
